Like-named read-outs stand apart in the source and are kept apart here.

What all share (assay): mMAPS
The target in test [1] is endogenous EGFR phosphorylated at Tyr1068 (HeLa cells) (human (endogenous in HeLa)) (UniProt P00533).
The target in test [2] is endogenous EGFR (HeLa cells) (human (endogenous in HeLa)) (UniProt P00533).
The target in test [3] is endogenous EGFR phosphorylated at Tyr1068 (HeLa cells) (human (endogenous in HeLa)) (UniProt P00533). This is another data set of the same source.
For test [4], the target named is endogenous EGFR (HeLa cells) (human (endogenous in HeLa)) (UniProt P00533). This is another data set of the same source.

For the substance A647-conjugated EGF (ligand), the percent of total detected EGFR events that are EGF-EGFR-pTyr1068 in test [1] turned out to be 2.64%; in test [3], 1.27%. For the same substance, the percent of total detected EGFR events that are EGF-EGFR in test [2] is 4.35%; in test [4], 3.3%.

Values taken from PMC4120848.
